According to article PMC12207366, “Protonated Glutamate and Aspartate Side Chains Can Recognize Phosphodiester Groups via Strong and Short Hydrogen Bonds in Biomacromolecular Complexes” (Angewandte Chemie (International Ed. in English), 2025):

Experiments:
[1] = unstructured peptides; cited from earlier work
Glu190 = Glu190 (UniProt position 190, EALVEEEKTGD); assay: ITC; conditions: 20 °C, 200 mM NaCl, 50 mM Tris (pH 8.5-7.5), 50 mM BisTris (pH 7.0-6.0) or 50 mM Na-acetate (pH 5.5-4.0), each with 1 mM beta-mercaptoethanol
Glu218 = Glu218 (UniProt position 218, RALAEEKGLEF); assay: ITC; conditions: 20 °C, 200 mM NaCl, 50 mM Tris (pH 8.5-7.5), 50 mM BisTris (pH 7.0-6.0) or 50 mM Na-acetate (pH 5.5-4.0), each with 1 mM beta-mercaptoethanol
[2] = c-di-GMP-bound protein (pKab of the thermodynamic cycle)
[3] = ligand-free protein (pKaf of the thermodynamic cycle)

For `N[C@@H](CCC(=O)O)C(=O)O` [glutamate], the “pKa of side chain carboxylate group” value [1] is listed as roughly 4.4.

“PilF GSPII-B domain (PilF159-302) Q190E (Thermus thermophilus; Q190E)” gave a pKa (Glu190; [2]) of 7.5 and a pKa (Glu190; [3]) of 6.3.

In the case of “PilF GSPII-B domain (PilF159-302) Q218E (Thermus thermophilus; Q218E)”, the pKa (Glu218; [2]) is reported as 7.1 and the pKa (Glu218; [3]) is reported as 5.9.
